Source: PMC4012256

Assays:
[1] = target: αVβ3(N339S) transiently expressed on HEK293T cells (human) (UniProt P06756)
[2] = target: wild-type αVβ3 stably expressed in K562 cells (K562-αVβ3) (human) (UniProt P06756); experiment: flow cytometry on cells
[3] = target: αVβ3(N339S) transiently expressed on HEK293T cells (human) (UniProt P06756); experiment: flow cytometry on cells

Chain of 10th type III RGD-domain of wild-type fibronectin (wtFN10) (domain or fragment) (P02751 45-2432): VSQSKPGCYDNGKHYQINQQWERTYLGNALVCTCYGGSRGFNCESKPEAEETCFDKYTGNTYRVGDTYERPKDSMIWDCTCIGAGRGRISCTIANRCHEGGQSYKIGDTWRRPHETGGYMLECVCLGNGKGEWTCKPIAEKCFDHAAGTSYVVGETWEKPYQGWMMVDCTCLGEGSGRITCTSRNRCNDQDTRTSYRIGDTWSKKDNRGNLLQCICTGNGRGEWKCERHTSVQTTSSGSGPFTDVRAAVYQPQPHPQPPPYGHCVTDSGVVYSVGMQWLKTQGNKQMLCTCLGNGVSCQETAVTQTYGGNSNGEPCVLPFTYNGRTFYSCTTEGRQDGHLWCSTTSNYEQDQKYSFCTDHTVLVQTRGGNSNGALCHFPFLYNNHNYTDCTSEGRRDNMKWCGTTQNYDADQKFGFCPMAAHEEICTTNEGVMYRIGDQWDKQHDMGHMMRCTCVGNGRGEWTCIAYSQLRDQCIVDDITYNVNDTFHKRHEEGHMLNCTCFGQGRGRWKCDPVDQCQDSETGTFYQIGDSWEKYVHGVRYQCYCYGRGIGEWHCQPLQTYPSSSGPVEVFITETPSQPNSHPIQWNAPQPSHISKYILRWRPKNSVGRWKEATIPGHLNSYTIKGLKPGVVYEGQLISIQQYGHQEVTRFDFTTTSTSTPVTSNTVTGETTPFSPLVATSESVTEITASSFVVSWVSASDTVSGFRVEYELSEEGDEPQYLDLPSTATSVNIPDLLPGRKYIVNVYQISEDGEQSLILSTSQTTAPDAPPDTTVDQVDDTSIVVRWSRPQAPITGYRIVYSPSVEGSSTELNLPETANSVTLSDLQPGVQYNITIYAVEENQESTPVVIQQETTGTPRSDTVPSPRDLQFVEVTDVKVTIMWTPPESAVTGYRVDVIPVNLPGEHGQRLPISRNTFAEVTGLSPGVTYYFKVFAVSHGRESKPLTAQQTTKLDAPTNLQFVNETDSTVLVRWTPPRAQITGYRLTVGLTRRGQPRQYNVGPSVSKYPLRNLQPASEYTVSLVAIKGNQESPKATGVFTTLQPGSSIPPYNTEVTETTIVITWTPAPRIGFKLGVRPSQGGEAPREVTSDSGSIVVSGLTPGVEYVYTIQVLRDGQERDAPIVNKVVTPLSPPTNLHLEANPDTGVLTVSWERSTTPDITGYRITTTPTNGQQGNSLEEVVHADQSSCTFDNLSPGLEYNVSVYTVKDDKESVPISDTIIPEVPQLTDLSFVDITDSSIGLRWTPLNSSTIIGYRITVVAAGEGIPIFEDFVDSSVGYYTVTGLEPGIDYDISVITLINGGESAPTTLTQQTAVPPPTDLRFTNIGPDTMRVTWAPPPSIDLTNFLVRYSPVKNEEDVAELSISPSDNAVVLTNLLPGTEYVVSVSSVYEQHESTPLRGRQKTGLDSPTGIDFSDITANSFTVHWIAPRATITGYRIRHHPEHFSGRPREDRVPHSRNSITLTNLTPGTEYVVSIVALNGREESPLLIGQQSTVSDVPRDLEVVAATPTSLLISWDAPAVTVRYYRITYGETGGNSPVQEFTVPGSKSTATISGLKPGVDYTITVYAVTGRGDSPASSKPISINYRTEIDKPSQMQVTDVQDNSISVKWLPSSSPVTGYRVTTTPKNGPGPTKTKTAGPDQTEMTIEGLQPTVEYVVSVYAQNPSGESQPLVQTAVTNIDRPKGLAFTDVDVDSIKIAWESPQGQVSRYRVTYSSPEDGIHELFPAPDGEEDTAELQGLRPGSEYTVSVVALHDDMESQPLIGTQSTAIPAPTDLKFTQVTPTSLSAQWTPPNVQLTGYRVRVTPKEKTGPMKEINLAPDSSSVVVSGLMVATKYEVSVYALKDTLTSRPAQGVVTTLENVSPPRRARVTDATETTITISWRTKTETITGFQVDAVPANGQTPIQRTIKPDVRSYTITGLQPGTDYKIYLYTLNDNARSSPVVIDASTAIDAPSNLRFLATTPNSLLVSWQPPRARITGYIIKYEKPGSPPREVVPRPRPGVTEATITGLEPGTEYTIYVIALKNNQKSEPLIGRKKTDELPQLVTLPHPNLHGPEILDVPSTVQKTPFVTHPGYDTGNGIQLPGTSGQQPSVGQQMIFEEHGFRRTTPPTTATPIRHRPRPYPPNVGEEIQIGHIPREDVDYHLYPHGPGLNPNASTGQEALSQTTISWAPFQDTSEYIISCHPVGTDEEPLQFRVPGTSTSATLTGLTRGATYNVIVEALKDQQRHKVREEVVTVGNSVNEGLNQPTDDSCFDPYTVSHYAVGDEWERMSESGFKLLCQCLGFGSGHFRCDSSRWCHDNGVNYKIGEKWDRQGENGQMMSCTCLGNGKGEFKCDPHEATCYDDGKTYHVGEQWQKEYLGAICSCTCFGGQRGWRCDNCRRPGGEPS
Chain of αVβ3(N339S) transiently expressed on HEK293T cells (human) (P06756 31-1048, chain 1 of 2): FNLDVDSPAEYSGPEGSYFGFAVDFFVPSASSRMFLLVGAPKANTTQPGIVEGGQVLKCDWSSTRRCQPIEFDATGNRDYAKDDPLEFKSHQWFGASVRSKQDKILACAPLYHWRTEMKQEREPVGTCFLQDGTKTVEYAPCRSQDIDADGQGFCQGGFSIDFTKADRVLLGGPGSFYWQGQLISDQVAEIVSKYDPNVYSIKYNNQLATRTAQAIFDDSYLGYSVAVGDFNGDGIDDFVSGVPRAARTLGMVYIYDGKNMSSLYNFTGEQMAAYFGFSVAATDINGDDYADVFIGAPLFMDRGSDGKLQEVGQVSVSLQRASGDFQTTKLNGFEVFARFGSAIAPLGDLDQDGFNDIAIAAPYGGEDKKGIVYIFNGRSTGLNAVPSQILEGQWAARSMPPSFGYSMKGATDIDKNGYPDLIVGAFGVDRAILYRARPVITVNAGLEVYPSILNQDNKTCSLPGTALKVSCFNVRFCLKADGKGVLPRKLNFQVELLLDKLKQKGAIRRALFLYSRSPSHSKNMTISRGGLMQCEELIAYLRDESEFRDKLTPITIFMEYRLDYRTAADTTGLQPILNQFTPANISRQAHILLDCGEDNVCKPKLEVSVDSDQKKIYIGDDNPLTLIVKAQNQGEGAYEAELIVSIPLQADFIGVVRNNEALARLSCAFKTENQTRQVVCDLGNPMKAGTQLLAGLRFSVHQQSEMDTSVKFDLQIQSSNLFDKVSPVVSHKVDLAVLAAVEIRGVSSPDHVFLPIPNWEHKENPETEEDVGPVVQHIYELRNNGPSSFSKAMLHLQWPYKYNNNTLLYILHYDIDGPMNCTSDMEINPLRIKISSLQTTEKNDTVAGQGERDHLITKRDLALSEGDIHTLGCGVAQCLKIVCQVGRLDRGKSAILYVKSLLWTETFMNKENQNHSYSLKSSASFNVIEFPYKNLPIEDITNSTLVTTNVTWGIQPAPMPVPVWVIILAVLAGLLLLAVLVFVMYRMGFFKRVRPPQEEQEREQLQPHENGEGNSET
Chain of αVβ3(N339S) transiently expressed on HEK293T cells (human) (P05106 27-788 N339S, chain 2 of 2, further chain): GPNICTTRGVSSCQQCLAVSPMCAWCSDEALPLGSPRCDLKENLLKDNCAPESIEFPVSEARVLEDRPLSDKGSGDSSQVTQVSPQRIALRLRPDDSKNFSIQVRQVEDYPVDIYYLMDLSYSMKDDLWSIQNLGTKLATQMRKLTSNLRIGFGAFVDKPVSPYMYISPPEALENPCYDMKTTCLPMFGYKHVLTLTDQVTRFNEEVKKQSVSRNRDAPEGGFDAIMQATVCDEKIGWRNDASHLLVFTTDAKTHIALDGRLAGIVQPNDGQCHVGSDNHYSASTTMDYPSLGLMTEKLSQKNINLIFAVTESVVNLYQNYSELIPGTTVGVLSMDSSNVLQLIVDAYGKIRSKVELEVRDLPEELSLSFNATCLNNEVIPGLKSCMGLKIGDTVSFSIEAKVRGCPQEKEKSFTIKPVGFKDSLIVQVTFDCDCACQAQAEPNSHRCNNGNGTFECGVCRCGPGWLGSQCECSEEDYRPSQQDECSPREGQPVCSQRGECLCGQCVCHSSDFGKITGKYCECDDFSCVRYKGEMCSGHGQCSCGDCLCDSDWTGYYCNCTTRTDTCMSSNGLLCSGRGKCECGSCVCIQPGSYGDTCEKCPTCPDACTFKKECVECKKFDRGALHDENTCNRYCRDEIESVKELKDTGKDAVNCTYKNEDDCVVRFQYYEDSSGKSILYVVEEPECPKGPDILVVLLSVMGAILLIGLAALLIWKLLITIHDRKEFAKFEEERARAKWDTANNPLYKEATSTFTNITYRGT
Chain of wild-type αVβ3 stably expressed in K562 cells (K562-αVβ3) (human) (P06756 31-1048, chain 1 of 2): as the sequence (P06756 31-1048, chain 1 of 2) above
Chain of wild-type αVβ3 stably expressed in K562 cells (K562-αVβ3) (human) (P05106 27-788, chain 2 of 2, further chain): as the sequence (P05106 27-788 N339S, chain 2 of 2, further chain) above, with S313N counted along it

“10th type III RGD-domain of wild-type fibronectin (wtFN10) (domain or fragment)” gave an AP5 epitope expression (flow cytometry, HEK293T) [1] of 2 fold, a fold increase of binding (MFI) in Mn2+ over Ca2+-Mg2+ [2] of 10 fold and a fold increase of binding by the N339S mutation over wild-type αVβ3 [3] of 6 fold.
